Laboratory results as given in patent US20150141617A1, “PRODUCTION AND PURIFICATION OF ACTIVE EUKARYOTIC FORMYLGLYCINEGENERATING ENZYME (FGE) VARIANTS” (Universität Bielefeld, priority 2013, published 2015).

Biological target: T1, human PACE4 (Homo sapiens, UniProt P29122)
T1 construct: expressed in transfected cells; host or cells: CHO-FD11 Tet-On cells, transient co-transfection with pBI-FGE-HA
T1 sequence (P29122 150-969): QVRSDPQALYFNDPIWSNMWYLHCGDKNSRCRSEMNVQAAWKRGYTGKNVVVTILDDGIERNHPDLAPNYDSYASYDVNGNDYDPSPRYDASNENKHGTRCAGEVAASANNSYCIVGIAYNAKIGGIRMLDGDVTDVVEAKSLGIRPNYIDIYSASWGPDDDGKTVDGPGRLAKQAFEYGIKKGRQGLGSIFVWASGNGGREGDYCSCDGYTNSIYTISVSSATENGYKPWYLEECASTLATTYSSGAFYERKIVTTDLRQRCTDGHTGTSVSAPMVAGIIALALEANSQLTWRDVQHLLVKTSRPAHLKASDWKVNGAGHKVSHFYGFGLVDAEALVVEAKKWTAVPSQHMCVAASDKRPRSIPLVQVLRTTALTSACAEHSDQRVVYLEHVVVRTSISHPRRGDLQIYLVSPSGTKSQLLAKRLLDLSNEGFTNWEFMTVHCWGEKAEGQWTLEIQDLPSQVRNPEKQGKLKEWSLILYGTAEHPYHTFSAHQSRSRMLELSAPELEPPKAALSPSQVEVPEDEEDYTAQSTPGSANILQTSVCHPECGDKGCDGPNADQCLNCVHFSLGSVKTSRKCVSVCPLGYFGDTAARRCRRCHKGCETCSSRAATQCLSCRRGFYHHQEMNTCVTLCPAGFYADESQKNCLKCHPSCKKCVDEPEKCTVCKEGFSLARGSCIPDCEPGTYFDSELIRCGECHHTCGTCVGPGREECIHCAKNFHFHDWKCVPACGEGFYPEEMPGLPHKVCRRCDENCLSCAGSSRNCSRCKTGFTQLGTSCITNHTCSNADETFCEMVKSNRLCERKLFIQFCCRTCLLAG
Assay: FGE processing in CHO-FD11 Tet-On cells co-expressing PACE4
Format: cell-based
Details: PACE4 coexpression
Description: The resulting constructs were verified by full-length sequencing of the coding region to exclude any PCR prone errors. Plasmids for expression of the PCs encoding human furin (Gene ID 5045), human PACE4 (=PCSK6, Gene ID 5046), murine […] (=Pcsk5, Gene ID 18552) and rat PC7 (=Pcsk7, Gene ID 29606) were kindly provided by Abdel-Majid Khatib (18). Note that the PC cDNAs were encoded as pIRES constructs coding also for enhanced green fluorescence protein (EGFP) such that EGFP expression levels serve as a measure of the expression levels of PCs.
3 μg of pSB-FGE-RGS-His6 vector was used for single transfections of HT1080, HeLa, HEK 293, BHK and CHO cells. Conditioned medium was collected after 24 h and centrifuged (500×g, 5 min) Cells were washed once with PBS, treated with trypsin (Lonza) and pelleted by 250×g to remove the medium. Cell pellets were resuspended in PBS (pH 7.4) containing protease inhibitor (PI) cocktail (Sigma) and lysed by sonication 3×10 s on ice. For co-expression of FGE with one of the PCs in CHO-FD11 Tet-On cells 2 μg of pBI-FGE-HA and 2 μg of the plasmids encoding PCs (see above) were used for transient transfection. In case of transient transfections using pBI-vector constructs the protein expression was induced by replenishing the medium with medium containing 2 μg/mL doxycycline (BD Biosciences) at 5 h post-transfection. […]

B1: FGE: human wild type full length formylglycine generating enzyme with RYSR furin cleavage motif, SEQ ID NO:2 (protein)
chain: ADEFSQEAGTGAGAGSLAGSCGCGTPQRPGAHGSSAAAHRYSREANAPGPVPGERQLAHSKMVPIPAGVFTMGTDDPQIKQDGEAPARRVTIDAFYMDAYEVSNTEFEKFVNSTGYLTEAEKFGDSFVFEGMLSEQVKTNIQQAVAAAPWWLPVKGANWRHPEGPDSTILHRPDHPVLHVSWNDAVAYCTWAGKRLPTEAEWEYSCRGGLHNRLFPWGNKLQPKGQHYANIWQGEFPVTNTGEDGFQGTAPVDAFPPNGYGLYNIVGNAWEWTSDWWTVHHSVEETLNPKGPPSGKDRVKKGGSYMCHRSYCYRYRCAARSQNTPDSSASNLGFRCAADRLPTMDSGRGSHHHHHHH
modifications: cloned matured acitve full length FGE with 6x His tag on C-terminus
- processing of FGE: low efficiency
